Earlier results on one substance are cited in paper PMC4900764.

For the data set, the target named is PEX5 (Saccharomyces cerevisiae) (UniProt P35056). Description: ITC.
UniProt P35056, sequence (P35056 whole entry): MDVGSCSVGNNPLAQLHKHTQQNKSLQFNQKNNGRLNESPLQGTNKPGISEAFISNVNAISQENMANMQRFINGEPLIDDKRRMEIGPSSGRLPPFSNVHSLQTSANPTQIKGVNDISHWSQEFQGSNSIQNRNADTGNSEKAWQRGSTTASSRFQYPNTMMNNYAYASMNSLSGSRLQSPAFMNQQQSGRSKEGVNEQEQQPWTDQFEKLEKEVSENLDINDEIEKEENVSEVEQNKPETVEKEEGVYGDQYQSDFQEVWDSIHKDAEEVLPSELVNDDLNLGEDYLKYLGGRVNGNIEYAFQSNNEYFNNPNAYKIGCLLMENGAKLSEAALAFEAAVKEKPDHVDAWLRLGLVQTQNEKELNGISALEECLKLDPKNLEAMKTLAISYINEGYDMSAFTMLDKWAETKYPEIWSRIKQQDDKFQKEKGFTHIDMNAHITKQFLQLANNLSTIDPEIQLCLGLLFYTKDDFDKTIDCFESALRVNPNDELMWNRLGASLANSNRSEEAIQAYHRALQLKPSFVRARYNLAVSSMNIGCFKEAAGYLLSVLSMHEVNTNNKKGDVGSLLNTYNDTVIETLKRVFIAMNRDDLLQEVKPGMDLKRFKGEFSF

Broadly, the Kd is the constant that tells how readily two partners part at equilibrium. Take PCS60 (from UniProt P38137): the Kd is 190 nM.
